Reference: US9505841B2, “Use of an anti-Ang2 antibody” (Samsung Electronics Co., Ltd., priority 2013, dated 2016)

Key:
LLC tumor tissues = assay: H&E staining of necrotic region in LLC tumors; type: in vivo, mouse; settings: 10 mg/kg i.p., five administrations, compared to Fc- or 4H10-treated group
Experimental: To see the effects of the structurally and functionally normalized blood vessels in tumor by treatment of antibody 10D6 on the tumor tissues, referring to the method of Example 14, LLC tumor cells were subcutaneously injected into mice. When the size of tumors reached 50˜100 mm^3, anti-Ang2 antibody 10D6 was injected at the concentration of 10 mg/kg via an intraperitoneal injection three times a week and the size of the tumors was measured. After administering the antibody five-times, the tumor sections were stained with H&E according to standard protocol, and then, the Eosin+ cell necrotic region in tumor tissues was confirmed. For comparison, the same experiment was performed to a control group treated with Fc of IgG1 and a comparative group treated with antibody 4H10 (refer to Example 3).

[1] = system: HL-60 cells adhered to HUVEC cells; assay: Binding between inflammatory cells HL-60 and HUVEC induced by TNF-a; type: cell-based, human; settings: 1 ng/ml TNF-a; 0.2 ug/ml Ang1 or 0.1 ug/ml Ang2 + 0.5 ug/ml 10D6
Experimental: Meanwhile, if the expression of inflammatory adhesion substances (ICAM-1, E-selectin, etc.) of vascular endothelial cells is increased, binding between the inflammatory cells and the vascular endothelial cells are accelerated and inflammatory response is thus induced. To confirm this, an experiment for measuring binding between inflammatory cells HL-60 (ATCC) and HUVEC was conducted.
HUVEC cells (4×10^5) were cultured in a 24-mutiwell plate and treated with 0.1 ug/ml of Ang2 alone or 0.1 ug/ml of Ang2 together with 0.5 ug/ml of antibody 10D6, and a group in which 0.2 ug/ml of Ang1, and 0.1 ug/ml of Ang2 (R&D systems) and 0.5 ug/ml of Regeneron Co. antibody (RG antibody) were co-treated was included as a control group. As above, the HUVEC cells were treated with Angiopoietin and antibody and after 30-min. pre-incubation, they were treated with 1 ng/ml of TNF-a (eBioscience) to induce inflammatory response and incubated for 2 hours and 30 min.
After the HUVEC cells were washed with complete media (Lonza), HL-60 cells dyed with Calcein-AM (BD bioscience) solution were added at the amount of 2.5×10^5 cells to each well and incubated for 1 hour. […] The obtained lysate was transported to a 96-well plate, and fluorescence strengths derived from the HL-60 cells were measured at 485/535 nm (Ex/Em) setting using an Envision 2104 multilabel Reader (Perkin Elmer).

B1: 10D6: mouse anti-Ang2 monoclonal antibody from hybridoma KCLRF-BP-00295; heavy chain variable region SEQ ID NO: 7, light chain variable region SEQ ID NO: 9 (antibody, V domains shown)
VH: DVQLQESGPGLVKPSQSLSLTCTVTGYSITSDYAWNWIRQFPGNKLEWMGYINYSGNTDYNPSLKSRSSITRDTSKNQFFLQLNSVTTGDTATYYCARGNFEGAMDYWGQGTSVTVSS
VL: SIVMTQTPKFLLVSAGDRVTITCKASQSVSNDVAWYQQKPGQSPKLLIYYASNRYPGVPDRFTGSGYGTDFTFTISTVQAEDLAVYFCQQDYSSPWTFGGGTKLEIK
modifications: Synthetic (Heavy chain variable region of an anti-Ang2 antibody); Synthetic (Light chain variable region of anti-Ang2 antibody)
cell necrotic region in tumor tissues (LLC tumor tissues): smaller
binding between HUVEC cells and HL-60 cells induced by TNF-a [1]: remarkably suppressed
